Reference: patent US9150655B2, “Anti-C-met antibody and methods of use thereof” (ACADEMIA SINICA, priority 2010, dated 2015)

Experiments:
c-Met567-Fc protein = target: T1, c-Met567-Fc protein (Homo sapiens, UniProt P08581); test: Epitope ELISA on c-Met932-Fc and c-Met567-Fc; assay type: binding; conditions: immobilized recombinant proteins
T1 construct: DNA fragments encoding amino acid residues 1 to 932 and 1 to 567 of c-Met were amplified by PCR; made in house; host or cells: 293T cells, transient transfection, protein G purification from supernatant
T1 sequence (P08581 25-567): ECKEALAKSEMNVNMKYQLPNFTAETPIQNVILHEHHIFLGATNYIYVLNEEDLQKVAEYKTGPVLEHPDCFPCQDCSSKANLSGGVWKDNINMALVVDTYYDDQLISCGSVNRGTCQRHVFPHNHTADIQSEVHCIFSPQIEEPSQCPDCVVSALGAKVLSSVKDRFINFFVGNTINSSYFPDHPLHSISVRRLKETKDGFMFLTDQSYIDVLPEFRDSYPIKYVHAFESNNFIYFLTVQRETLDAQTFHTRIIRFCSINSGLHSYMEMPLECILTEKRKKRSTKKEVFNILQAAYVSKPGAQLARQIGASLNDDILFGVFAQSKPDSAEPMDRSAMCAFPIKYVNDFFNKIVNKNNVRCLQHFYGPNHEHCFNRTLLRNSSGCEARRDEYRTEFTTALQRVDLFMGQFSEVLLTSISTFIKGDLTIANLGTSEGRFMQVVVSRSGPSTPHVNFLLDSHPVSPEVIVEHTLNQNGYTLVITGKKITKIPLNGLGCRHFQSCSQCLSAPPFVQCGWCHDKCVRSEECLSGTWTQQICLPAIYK
Experimental: Therefore, binding epitopes of anti-c-Met scFvs localized within HGF binding domain of c-Met were investigated. The binding ability of anti-c-Met scFvs was examined for c-Met932-Fc protein including whole extracellular domain of c-Met, and c-Met567-Fc protein containing Sema and PSI domain, both of which have been defined as HGF binding regions (FIG. 2, panel C). The c-Met recombinant proteins were immobilized on titer wells, and incubated with anti-c-Met scFvs. Anti-c-Met polyclonal antibody and anti-E tag antibody was used as a positive and negative control, respectively. […] The binding intensity of S1 for c-Met932-Fc was similar to that for c-Met567-Fc.

c-Met932-Fc protein = target: T2, c-Met932-Fc protein (Homo sapiens, UniProt P08581); test: Binding kinetics of anti-c-Met scFv by SPR (BIAcore)
T2 construct: DNA fragments encoding amino acid residues 1 to 932 and 1 to 567 of c-Met were amplified by PCR; made in house; host or cells: 293T cells, transient transfection, protein G purification from supernatant
T2 sequence (P08581 25-307): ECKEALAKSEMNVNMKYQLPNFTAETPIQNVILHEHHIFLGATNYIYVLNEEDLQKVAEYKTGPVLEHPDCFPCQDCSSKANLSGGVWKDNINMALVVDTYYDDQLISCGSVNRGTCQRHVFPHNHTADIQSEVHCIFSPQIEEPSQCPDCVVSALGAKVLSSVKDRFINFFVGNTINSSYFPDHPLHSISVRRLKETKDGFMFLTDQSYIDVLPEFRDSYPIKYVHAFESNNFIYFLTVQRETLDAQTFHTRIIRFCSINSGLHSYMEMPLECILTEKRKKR
T2 sequence (P08581 308-932): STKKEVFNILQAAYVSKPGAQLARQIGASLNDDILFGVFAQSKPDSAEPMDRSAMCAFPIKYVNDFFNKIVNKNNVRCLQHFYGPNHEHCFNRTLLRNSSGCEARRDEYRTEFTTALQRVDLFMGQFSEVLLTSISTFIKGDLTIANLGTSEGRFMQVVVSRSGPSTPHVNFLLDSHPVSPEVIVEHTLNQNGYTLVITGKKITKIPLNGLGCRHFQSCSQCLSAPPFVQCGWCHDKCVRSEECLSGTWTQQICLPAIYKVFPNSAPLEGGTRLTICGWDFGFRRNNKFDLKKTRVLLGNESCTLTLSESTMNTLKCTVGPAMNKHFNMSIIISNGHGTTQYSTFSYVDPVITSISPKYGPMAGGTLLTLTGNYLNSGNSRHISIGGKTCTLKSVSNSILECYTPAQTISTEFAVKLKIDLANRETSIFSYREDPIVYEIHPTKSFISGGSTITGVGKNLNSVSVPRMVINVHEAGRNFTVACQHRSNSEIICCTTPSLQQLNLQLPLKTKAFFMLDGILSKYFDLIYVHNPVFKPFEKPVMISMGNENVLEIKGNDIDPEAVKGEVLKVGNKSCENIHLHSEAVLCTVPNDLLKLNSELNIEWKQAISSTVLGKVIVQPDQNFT
Experimental: The affinity and kinetics of anti-c-Met scFv were measured by SRP in BIAcore X (GE healthcare). In BIAcore flowcell, 30 μg/ml of c-MetF932-Fc protein was coupled to EDC- and NHS-activated CM5 sensor chip followed by blocking with ethanolamine according to manufacturer's directions. Associated and dissociated phases were monitored for 3 and 5 min, respectively, under continuous flow of 30 μl/min using scFv concentrations ranging 5 to 200 nM. Regeneration was performed by injection of regenerate buffer (0.2 M NaCl, 10 mM glycine, pH 2.7). To determine binding constants, the sensorgrams were fit globally to a sample 1:1 interaction model using BIAevaluation software (GE healthcare).
Binding kinetic constants (Kon and Koff) and affinity of each soluble scFv for c-Met932-Fc protein were measured by Surface Plasmon Resonance (SPR).
Kon and Koff were measured by SRP in a BIAcore using purified scFvs, and the Kd was calculated by BIAevaluation software.

c-MetF932-Fc protein = target: T3, c-MetF932-Fc protein (Homo sapiens, UniProt P08581); test: Competitive ELISA: soluble scFv inhibit HGF binding to immobilized c-Met protein; conditions: different concentrations of soluble scFv
T3 construct: DNA fragments encoding amino acid residues 1 to 932 and 1 to 567 of c-Met were amplified by PCR; made in house; host or cells: 293T cells, transient transfection, protein G purification from supernatant
T3 sequence (P08581 25-307 limits assumed): as the sequence (P08581 25-307) above
T3 sequence (P08581 308-932 limits assumed): as the sequence (P08581 308-932) above
Experimental: To monitor inhibition effect of scFv, we coated the c-MetF932-Fc protein on a 96-well plate and blocked nonspecific binder with 3% BSA in PBS. 1 nM human HGF (R&D) plus varying concentrations of anti-c-Met scFv or normal mouse IgG were applied to the wells. The amount of HGF bound to c-Met was determined using goat anti-human HGF (R&D), following incubation of HRP-labeled mouse anti-goat IgG (Jackson ImmunoResearch) and OPD substrate (Sigma) plus H2O2. The absorbance was measured with 490 nm using a microplate reader. Inhibition percentage was calculated by the following equation: [(the absorbance of HGF bound without competitor)−(the absorbance of HGF bound with competitor)]/(the absorbance of HGF bound without competitor)×100%.
To test whether the three anti-c-Met scFvs could inhibit HGF binding to c-Met, the human lung cancer cell line H1993 was chosen to undergo competition ELISA (Lutterbach B et al. (2007) Cancer Res 67:2081-2088). […] HGF binding to H1993 cells without competitors was considered 100%. H1993 is known to express a high level of c-Met. When H1993 cells were incubated with HGF in the presence of the phage clones, the binding of HGF to H1993 cells was diminished by more than 90% by the anti-c-Met scFv PC1. PC20 inhibited more than 50% of HGF binding to c-Met (FIG. 2, panel A). The competitive inhibition of HGF by different concentrations of soluble scFvs was also tested. Normal mouse IgG (NMIgG) was used as a negative control. HGF binding to immobilized c-Met protein without competitors was considered 100%.

[1] = purified scFv, c-MetF932-Fc on CM5 chip

B1: S21: soluble anti-c-Met scFv corresponding to phage clone PC21; VH/VL sequences in Table 1 (protein)
scFv: MAEVQLVESGPGLVKPSGTLSLKCDASAISMDSNYWWSWLRQPPGKGLEWIGEISHSGSTDYNPSLKSRATISIDKSKKQFFLRLKSVTAADTAVYYCAGLLSPLDAFDEWGQGTMVTVGGGGSGGGGSGGGGSDIQMTQSPSSLSASVGDRVTITCRASQRVATYLNWYQQKPGKAPNLLIYEASSLQSGVPSRFSGRRSGTDFTLTISSLQPEDFATYYCQQSYNTPYTFGQGTRLEIKR
modifications: left off: small tags and cut ends
Question: How did the “Binding to c-Met567-Fc compared to c-Met932-Fc” value (c-Met567-Fc protein) turn out when B1 was run?
Answer: Its value is “dramatically decreased”.

Question: What about the Kd (c-Met932-Fc protein; purified scFv 5 to 200 nM, c-MetF932-Fc coupled to CM5 chip, Kd calculated by BIAevaluation software) of the same molecule?
Answer: The Kd was 14.9 nM.

Question: What about the Koff (c-Met932-Fc protein; [1]) of the same molecule?
Answer: Its Koff is 0.00389 s⁻¹.

Question: What about the Kon (c-Met932-Fc protein; [1]) of the same molecule?
Answer: The Kon was 261000 M⁻¹ s⁻¹.

Question: And the “Inhibition of binding activity of HGF to c-Met” value (c-MetF932-Fc protein)?
Answer: Its value is “only slightly inhibited”.
